Results reported in paper PMC9182532, “The RHIM of the Immune Adaptor Protein TRIF Forms Hybrid Amyloids with Other Necroptosis-Associated Proteins” (Molecules, 2022).

B1: Ub-TRIF_(601–712) (domain or fragment, human, UniProt Q8IUC6 601-712, looked up)
chain: APYGARMPFGGQVPLGAPPPFPTWPGCPQPPPLHAWQAGTPPPPSPQPAAFPQSLPFPQSPAFPTASPAPPQSPGLQPLIIHHAQMVQLGLNNHMWNQRGSQAPEDKTQEAE
notes: Kept as monomer in 8 M urea; assembly is started by removing the denaturant; also called wildtype TRIF RHIM; source: E. coli BL21(DE3), solubilised in 8 M urea, purified (Ni-NTA); not shown: ubiquitin, N-terminal, kept
B2: YPet-TRIF_(601–712) (domain or fragment, human, UniProt Q8IUC6 601-712, looked up)
chain: B1 chain
notes: source: E. coli BL21(DE3), solubilised in 8 M urea, purified (Ni-NTA); not shown: YPet, N-terminal, kept
B3: mCherry-RIPK1_(497–583) (domain or fragment, human, UniProt Q13546 497-583, looked up)
chain: MPSLHNIPVPETNYLGNTPTMPFSSLPPTDESIKYTIYNSTGIQIGAYNYMEIGGTSSSLLDSTNTNFKEEPAAKYQAIFDNTTSLT
notes: also called RIPK1 RHIM construct; source: E. coli BL21(DE3), solubilised in 8 M urea, purified (Ni-NTA); not shown: mCherry, N-terminal, kept

How the values were obtained:
[1] = molecular target: the molecule itself; assay: thioflavin T fluorescence + Congo red absorbance; self-assembly started by dilution from urea into 25 mM NaH2PO4, 150 mM NaCl, pH 7.4, 40 µM ThT, 0.5 mM DTT, 37 °C, 2.5 µM (0.625–5 µM in the concentration series); Congo red on samples dialysed overnight at 0.3 mg/mL
[2] = molecular target: the molecule itself; assay: SDS-agarose gel electrophoresis (SDS-AGE); 5 µM alone or equimolar mixtures, kept in 8 M urea (monomer control) or dialysed overnight against 100 mM NaH2PO4, 20 mM Tris, 0.5 mM DTT, pH 8.0, with or without 2% SDS for 10 min; 1% agarose gel with 0.1% SDS; YPet and mCherry fluorescence imaged and overlaid
YPet-TRIF_(601–712) = molecular target: B2; assay: as above; details: both partners purified

Row | Binder | binding result [1] | binding result [2] | binding result (YPet-TRIF_(601–712))
1 | B1 | binds | – | –
2 | B2 | – | binds | –
3 | B3 | – | binds | binds
